Like-named read-outs stand apart in the source and are kept apart here. Bridges are numbered along the chain shown (N, C = ends). Where no end group is shown, it is not given here. [ ]: non-standard residue; d: D form. AllylGly = C=CC[C@H](N)C(=O)O; DIG = diglycolic acid linker; AEA = NCCOCC(=O)O; βAla = NCCC(=O)O Where only a bound is given, the exact number is not on record here.

What is called IC50 is the concentration needed to halve the response being measured. A lower IC50 goes with greater potency in that assay. The term Kd denotes the constant that tells how readily two partners part at equilibrium. As a reminder, the koff is a measure of how fast the partners let go of each other. A word on the kon: it is the rate constant with which the complex forms.

The target of assay [1] is Rat IL-23R_huFC (rat). Nature of the assay: rat ELISA vs IL-23. A general note: ELISA stands for enzyme-linked immunosorbent assay.
Assay [2] deals with T1, IL23R_huFC (human, UniProt Q5VWK5 24-353).
T1 sequence (looked up): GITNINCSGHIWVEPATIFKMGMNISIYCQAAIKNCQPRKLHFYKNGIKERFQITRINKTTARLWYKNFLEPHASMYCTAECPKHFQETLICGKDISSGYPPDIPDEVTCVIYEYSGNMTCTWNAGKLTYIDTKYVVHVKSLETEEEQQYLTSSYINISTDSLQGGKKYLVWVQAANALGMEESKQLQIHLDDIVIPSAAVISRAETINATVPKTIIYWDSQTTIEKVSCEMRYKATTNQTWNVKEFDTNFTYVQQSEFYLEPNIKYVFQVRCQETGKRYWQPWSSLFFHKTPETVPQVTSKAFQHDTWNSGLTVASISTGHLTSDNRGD
Put plainly: human ELISA vs IL-23.

In assay [3] the target is T1, IL23R_huFC. Put plainly: human ELISA vs IL-23. This is another data set of the same source.
The target of assay [4] is T2, IL23R_huFC (human, UniProt Q5VWK5 24-353).
T2 sequence (looked up): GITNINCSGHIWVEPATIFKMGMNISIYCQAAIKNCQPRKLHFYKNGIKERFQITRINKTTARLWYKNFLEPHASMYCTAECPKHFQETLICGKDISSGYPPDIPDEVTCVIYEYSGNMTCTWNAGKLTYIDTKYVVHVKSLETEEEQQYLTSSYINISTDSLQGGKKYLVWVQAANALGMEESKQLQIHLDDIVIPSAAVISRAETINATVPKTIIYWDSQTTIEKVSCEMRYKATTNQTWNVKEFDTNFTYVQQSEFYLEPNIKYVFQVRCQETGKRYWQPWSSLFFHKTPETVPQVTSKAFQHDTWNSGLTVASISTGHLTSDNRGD
Nature of the assay: IL23-IL23R competitive ELISA, IC50 grade.

A further assay concerns the target T3, IL-23R on DB cells (human, UniProt Q5VWK5 24-629).
T3 sequence (looked up): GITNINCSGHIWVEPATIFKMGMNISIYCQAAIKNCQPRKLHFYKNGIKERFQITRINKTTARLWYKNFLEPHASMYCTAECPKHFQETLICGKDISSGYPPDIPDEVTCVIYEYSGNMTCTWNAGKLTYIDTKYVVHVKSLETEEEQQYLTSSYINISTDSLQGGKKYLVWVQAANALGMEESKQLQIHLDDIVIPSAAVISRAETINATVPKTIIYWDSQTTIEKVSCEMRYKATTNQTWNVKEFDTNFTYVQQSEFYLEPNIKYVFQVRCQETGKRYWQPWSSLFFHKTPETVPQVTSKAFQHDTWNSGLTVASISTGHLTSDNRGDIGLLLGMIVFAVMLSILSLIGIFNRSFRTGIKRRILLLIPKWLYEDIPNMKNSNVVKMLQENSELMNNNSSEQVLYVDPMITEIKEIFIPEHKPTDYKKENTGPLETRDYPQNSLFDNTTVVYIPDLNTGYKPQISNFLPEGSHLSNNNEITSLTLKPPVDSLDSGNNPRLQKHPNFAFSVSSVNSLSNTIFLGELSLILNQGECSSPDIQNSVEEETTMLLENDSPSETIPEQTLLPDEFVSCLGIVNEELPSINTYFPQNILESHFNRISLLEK
Nature of the assay: cell-based or functional assay.

Assay [5] concerns the target T4, IL23R_huFC (human, UniProt Q5VWK5 24-353).
T4 sequence (looked up): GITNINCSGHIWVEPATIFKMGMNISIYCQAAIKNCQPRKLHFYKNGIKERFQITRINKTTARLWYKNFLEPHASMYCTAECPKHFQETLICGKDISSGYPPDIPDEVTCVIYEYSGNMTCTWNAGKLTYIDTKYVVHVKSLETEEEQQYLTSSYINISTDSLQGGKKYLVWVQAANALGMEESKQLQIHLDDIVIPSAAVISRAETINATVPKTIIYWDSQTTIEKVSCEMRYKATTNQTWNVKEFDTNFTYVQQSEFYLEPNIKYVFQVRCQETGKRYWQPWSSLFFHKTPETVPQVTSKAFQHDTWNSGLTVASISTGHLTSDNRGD
Nature of the assay: IL23-IL23R competitive binding ELISA.

For assay [6], the target named is T5, Rat IL-23R_huFC (rat; human, UniProt F1LX96 39-369).
T5 sequence: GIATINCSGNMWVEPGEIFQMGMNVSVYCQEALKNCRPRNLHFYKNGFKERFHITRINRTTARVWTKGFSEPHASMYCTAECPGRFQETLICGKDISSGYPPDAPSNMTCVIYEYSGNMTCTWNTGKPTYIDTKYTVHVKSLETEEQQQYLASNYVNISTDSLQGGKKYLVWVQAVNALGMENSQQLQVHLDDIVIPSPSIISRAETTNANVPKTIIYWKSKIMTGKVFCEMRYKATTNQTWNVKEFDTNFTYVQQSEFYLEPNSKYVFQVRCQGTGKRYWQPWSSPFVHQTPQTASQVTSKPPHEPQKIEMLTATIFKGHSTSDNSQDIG
Nature of the assay: rat IL-23R competitive ELISA.

Assay [7] concerns the target IL-12Rb1_huFC/IL-23R_huFC (human, UniProt P42701 24-540; Q5VWK5 24-353). Put plainly: SPR, mixed IL-12Rb1_huFC/IL-23R_huFC surface, IL-23 as analyte. In general terms: In SPR one partner is held on a chip, and binding of the other changes the refractive index at the surface.
Assay [8] has as its target recombinant human IL-12Rβ1_huFC (RnD) (human, UniProt P42701 24-540). Put plainly: SPR, IL-12Rb1_huFC captured on anti-human IgG, IL-23 as analyte.
Assay [9] has as its target T1, IL23R_huFC. Nature of the assay: human ELISA vs IL-23. The source holds these as a separate data set.
The target of assay [10] is T6, IL-23R on human cells (IL-23R-expressing DB cells; human NK cells) (human, UniProt Q5VWK5 24-629).
T6 sequence (looked up): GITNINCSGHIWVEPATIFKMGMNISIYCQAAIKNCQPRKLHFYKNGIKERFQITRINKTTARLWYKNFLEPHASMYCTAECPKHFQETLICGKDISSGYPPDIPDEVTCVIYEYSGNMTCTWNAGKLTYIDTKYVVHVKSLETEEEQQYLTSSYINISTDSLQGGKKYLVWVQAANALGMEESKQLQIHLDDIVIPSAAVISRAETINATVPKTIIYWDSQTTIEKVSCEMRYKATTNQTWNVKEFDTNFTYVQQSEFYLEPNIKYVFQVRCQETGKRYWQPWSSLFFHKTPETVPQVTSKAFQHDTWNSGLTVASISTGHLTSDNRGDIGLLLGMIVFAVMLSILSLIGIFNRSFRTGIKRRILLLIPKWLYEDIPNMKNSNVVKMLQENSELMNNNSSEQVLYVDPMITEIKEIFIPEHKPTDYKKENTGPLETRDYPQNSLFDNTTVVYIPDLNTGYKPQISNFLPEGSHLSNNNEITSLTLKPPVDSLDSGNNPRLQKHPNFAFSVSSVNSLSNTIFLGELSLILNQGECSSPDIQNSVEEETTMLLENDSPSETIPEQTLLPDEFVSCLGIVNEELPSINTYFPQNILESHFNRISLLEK
Put plainly: cell-based or functional assay.

The target in assay [11] is T6, IL-23R on human cells …. Put plainly: cell-based or functional assay. The source holds these as a separate data set.
The target in assay [12] is Rat IL-23R_huFC (rat). Nature of the assay: rat ELISA vs IL-23. The source holds these as a separate data set.

In the assay with Rat IL-23R_huFC [1], XADWVCYWHTFGXK (as bracketed in name; cyclized via Cys and Pen) [Ac-[(D)Pen]-ADWVCYWHTFG-[AEA]-[(D)-Lys]-NH2] displayed an IC50 of 1000 to 10000 nM.

In turn, [AllylGly]ADWV[AllylGly]YWHTFG (staple 1-6 (inferred)) [SEQ ID NO. 1000 peptide (drawing CHEM-US-00114)] returned an IC50 with IL23R_huFC [2] of around 20000 nM.

B1: [Ac-Cyclo-[[Abu]-QTWQC]-[Phe]4-(2-aminoethoxy)]]-[2-Nal]-[Aib]-QNG-NH2]2DIG (peptide)
peptide: XQTWQCFXXQNG
modifications: not fully specified; as bracketed in name; thioether cyclo; DIG linker through Phe[4-(2-aminoethoxy)]
B1: in the assay with IL23R_huFC [3], the half-inhibitory concentration (IC50) fell in the range of 25 to 100 nM.

For the molecule Ac-CADWVCYWHTK(DIG)G-OH (cysteine pairing not given here; also: dimer through DIG on Lys) [(Ac-CADWVCYWHTKG-OH)2DIG], in the assay with IL23R_huFC [4], the concentration for half-maximal inhibition (IC50) lay within 1000 to 10000 nM.

B2: [Ac-[Pen]-QTWQ-[Pen]-[Phe[4-(2-aminoethoxy)]-[2-Nal]-[α-Me-Leu]-QNN-NH2]2DIG (peptide)
peptide: XQTWQXFXLQNN
modifications: Ac; Pen-Pen disulfide; Phe[4-(2-aminoethoxy)]; 2-Nal; α-Me-Leu; NH2; DIG linker joins the two subunits
For the molecule B2, the “pStat3 HTRF IC50” value with IL-23R on DB cells was in the range of 10 to 25 nM. For the same molecule, the concentration for half-maximal inhibition (IC50) in the assay with IL23R_huFC [5] lay in the range of 10 to 25 nM.

B3: [Ac-[Pen]-QTWQ-[Pen]-[Phe[4-(2-aminoethoxy)]-[2-Nal]-[α-Me-Leu]-QNN-NH2]2PEG25 (peptide)
peptide: XQTWQXFXLQNN
modifications: Ac; Pen-Pen disulfide; Phe[4-(2-aminoethoxy)]; 2-Nal; α-Me-Leu; NH2; PEG25 linker joins the two subunits
For the molecule B3, the “pStat3 HTRF IC50” value with IL-23R on DB cells was in the range of 10 to 25 nM. In the assay with IL23R_huFC [5], this molecule displayed an IC50 below 10 nM.

Ac-CQTWQCYW[βAla]VFG[AEA][dK]-NH2 (disulfide 1-6 (inferred)) [Ac-CQTWQCYW-[βAla]-VFG-[AEA]-[(D)Lys]-NH2] registered an IC50 with Rat IL-23R_huFC [6] of 2210 nM. This counts as single-digit micromolar.

In the case of [AllylGly]ADWV[AllylGly]YWHTFG (staple 1-6 (inferred)) [SEQ ID NO. 1001 peptide (drawing CHEM-US-00115)], in the assay with IL23R_huFC [2], the IC50 is around 30000 nM.

B4: Recombinant human IL-23 (Humanzyme) (ligand)
chain 1: RAVPGGSSPAWTQCQQLSQKLCTLAWSAHPLVGHMDLREEGDEETTNDVPHIQCGDGCDPQGLRDNSQFCLQRIHQGLIFYEKLLGSDIFTGEPSLLPDSPVGQLHASLLGLSQLLQPEGHHWETQQIPSLSPSQPWQRLLLRFKILRSLQAFVAVAARVFAHGAATLSP
chain 2: IWELKKDVYVVELDWYPDAPGEMVVLTCDTPEEDGITWTLDQSSEVLGSGKTLTIQVKEFGDAGQYTCHKGGEVLSHSLLLLHKKEDGIWSTDILKDQKEPKNKTFLRCEAKNYSGRFTCWWLTTISTDLTFSVKSSRGSSDPQGVTCGAATLSAERVRGDNKEYEYSVECQEDSACPAAEESLPIEVMVDAVHKLKYENYTSSFFIRDIIKPDPPKNLQLKPLKNSRQVEVSWEYPDTWSTPHSYFSLTFCVQVQGKSKREKKDRVFTDKTSATVICRKNASISVRAQDRYYSSSWSEWASVPCS
For the molecule B4, in assay [7], binding was put at a Kd of 0.18 nM, the off-rate (koff) turned out to be 0.000115 s⁻¹ and the on-rate constant (kon) was 631000 M⁻¹ s⁻¹. Moreover, in assay [8], the Kd turned out to be 0.87 nM, the koff worked out at 0.000438 s⁻¹ and the kon was found to be 501000 M⁻¹ s⁻¹.

B5: [Ac-Cyclo-[[Abu]-QTWQC]-[Phe(4-OMe)]-[2-Nal]-[α-MeLys+-ENG-NH2]2DIG (peptide)
peptide: XQTWQCFXKENG
modifications: not fully specified; as bracketed in name; thioether cyclo; DIG linker through a-MeLys
For the molecule B5, the IC50 with IL23R_huFC [9] was below 10 nM; in the assay with Rat IL-23R_huFC [12] it was 10 to 25 nM. The “pStat3 HTRF IC50” value in assay [10] is below 10 nM. In assay [11], the “NK cell assay IC50 (IFNγ)” value is below 25 nM.

The values are drawn from patent US20190300590A1 (PROTAGONIST THERAPEUTICS, published 2019).
